Data set [1] has as its target T1, thrombin (alpha-thrombin) (UniProt P00734;P00734 328-363;364-622). Description: competition (FAM fluorescence displacement); TBA-FAM Kd fixed at 15 nM; 100 mM KCl; Fluorescence assays: 10 mM sodium cacodylate pH 7.2, 100 mM KCl, 20 °C, 20 nM FAM-aptamer (100 nM thrombin in displacement); EMSA: 1xTBE pH 8.3, 100 mM KCl (ann). A general note: In EMSA bound probe runs differently from free probe, usually more slowly.

The target of data set [2] is T1, thrombin (alpha-thrombin). Briefly: competition (FAM fluorescence displacement); fit of pair TBA-FAM/TBA; 100 mM KCl; Fluorescence assays: 10 mM sodium cacodylate pH 7.2, 100 mM KCl, 20 °C, 20 nM FAM-aptamer (100 nM thrombin in displacement); EMSA: 1xTBE pH 8.3, 100 mM KCl (ann).
For data set [3], the target named is T1, thrombin (alpha-thrombin). Description: competition (FAM fluorescence displacement); fit of pair TBA-FAM/TBA-N8; 100 mM KCl; Fluorescence assays: 10 mM sodium cacodylate pH 7.2, 100 mM KCl, 20 °C, 20 nM FAM-aptamer (100 nM thrombin in displacement); EMSA: 1xTBE pH 8.3, 100 mM KCl (ann).

As a reminder, the Kd is the constant that tells how readily two partners part at equilibrium.

Regarding GGTTGGTGTGGTTGG (structured_DNA) [TBA], the Kd came out at 23.7 nM in data set [1] and 15.8 nM in data set [2].

As to GGTTGGTGTGGTTGG (structured_DNA, 3' hexaethyleneglycol linker) [TBA-FAM], the Kd came out at 18.3 nM in data set [3] and 11.3 nM in data set [2].

The values above are taken from publication PMC4648099.
